This note sets out measurements from patent publication US20100099601A1.

This test concerns the target Insulin-like Growth Factor Receptor (IGFR; Type I IGF receptor) (UniProt P08069). Description: displacement of 125I-IGF-1 from IGFR. Background: Loss of bound radioactivity is the signal in a displacement assay; it reports binding, not function.

Usually Kd stands for the free concentration of one partner at which half of the binding sites on the other are occupied at equilibrium, for simple one-to-one binding. The low end stands for higher affinity, the high end for lower affinity. “Lantus (insulin analogue with two additional Arg residues at the carboxy-terminal end of the B-chain) (ligand)”: the Kd is 3.14 nM, the Relative Affinity (to IGF-1) turned out to be 0.015 fold and the fold affinity relative to human insulin lay in the range of 2 to 3 fold.
